# According to patent US20250154215A1, “PHARMACEUTICAL COMPOSITION FOR TREATING COLITIS OR COLORECTAL CANCER COMPRISING COLON-TARGETED S100A8/A9-DERIVED SPECIFIC PEPTIDE” (Industry-University Cooperation Foundation Hanyang …, priority 2023, published 2025):
# “Also recorded” adds a separate entry of the source.
# B1: TWYKIAFQRNRKTWYKIAFQRNRKTWYKIAFQRNRKTWYKIAFQRNRKTWYKIAFQRNRKGGFLVIKGGAHKSHKGGITIITFGGGHHGGFLVIKGGAHKSHKGGITIITFGGGHHGGFLVIKGGAHKSHKGGITIITFGGGHHGG (protein)
# chain: TWYKIAFQRNRKTWYKIAFQRNRKTWYKIAFQRNRKTWYKIAFQRNRKTWYKIAFQRNRKGGFLVIKGGAHKSHKGGITIITFGGGHHGGFLVIKGGAHKSHKGGITIITFGGGHHGGFLVIKGGAHKSHKGGITIITFGGGHHGG
# modifications: N-terminal 6xHis tag
# Tests used:
# [1] = AOM/DSS-induced colitis-associated colorectal cancer (CAC) mouse model; type: in vivo, mice
# Text: Weight of mice compared to baseline during AOM/DSS administration. In this experiment, weight loss is a surrogate indicator of colitis severity. Data is representative of two independent experiments with similar results. […] Note the higher tumor burden in the distal colon/rectum and the characteristic wrinkled texture of the proximal colon with little tumor growth. […] Most tumors are located in the distal colon, and their sizes are less than 2 mm. Data is shown as the mean±SD of six experiments. […] H&E and β-catenin stained slides show dysplastic changes similar to human colonic adenocarcinoma;
# (§1) DSS-induced acute or chronic colitis and AOM/DSS CRC mouse models were prepared using 6-week-old C57BL/6 female mice (Samtako Bio, Osan, Korea). To assess the induction of acute colitis, mice were exposed ad libitum to 3% (w/v) dextran sodium sulfate (molecular weight: 36-50 kDa, MP Biomedicals, Santa Ana, CA, USA) dissolved in drinking water. The mouse models are illustrated in FIGS. 7A, 5E, and 6A. DSS solutions were prepared every two days. […] The humane endpoint for weight loss (requiring euthanasia) was 20% (compared to the original body weight of an animal). Without an approved exception request, body weight loss could not exceed 20%.
# AOM/DSS-treated mice were administered rCT-S100A8/A9 four times according to the administration frequency during three DSS cycles until week 10 (FIG. 9A, top). […] Tumor induction by AOM/DSS treatment was mainly observed in the distal colon and produced colonic shortening in the CAC mouse model.
# [2] = test system: OxaR HCT116 xenograft; assay: Parental or OxaR HCT116 xenograft tumor growth inhibition; type: in vivo, mice
# Description: For tumor xenograft experiments, 4- to 6-week-old female athymic nude mice (Central Lab Animal Inc., Seoul, Korea) were used. 1×10^6 HCT116 cells suspended in 0.1 mL of a cell culture medium were injected subcutaneously into the animals' right axillary region and observed for 7 to 10 days while the tumor volume was measured. Treatment was initiated when the tumor size reached an average volume of 200 or 600 mm^3. The tumor volume was measured with a skin caliper every three days, calculated as (tumor length)×(tumor width)^2×0.5, and expressed in mm^3. All animals were maintained in a specific pathogen-free environment. All animal-related procedures were examined and approved by the Hanyang University Institutional Animal Care and Use Committee (protocol numbers: 2022-0145 and 2022-0266).
# Next, tumor growth inhibition assays were performed under various tumor growth conditions, and rCT-S100A8/A9 treatment was started according to the size of the established tumors. For initial tumor growth, rCT-S100A8/A9 treatment was started 10 days after tumor establishment, and for actively growing tumors, rCT-S100A8/A9 treatment was started 21 days after tumor establishment.
# [3] = DSS-induced acute colitis mouse model; type: in vivo, mice
# Description: as §1
# The clinical score of colitis was obtained by measuring body weight, fecal occult blood or total blood loss, and stool consistency every other day during the induction of colitis. The clinical score were assessed by two trained investigators who were randomly selected. For immunohistochemical analysis of tissue sections, mouse distal colon tissues were fixed in 10% formalin and embedded in paraffin. Paraffin sections ([…]) were cut and stained with H&E. Histopathological scoring was performed by a certified pathologist (Min-Kyung Kim, Department of Pathology, Kim Min-Kyung Pathology Clinic, Seoul, Korea) who scored each organ section independently without prior knowledge of the treatment group.
# The therapeutic efficacy of rCT-S100A8/A9 on DSS-induced acute colitis in mice was evaluated. After colitis was induced by DSS, the mice were intraperitoneally injected with rCT-S100A8/A9 (50 μg/kg) once daily for 6, 7, or 8 days, and sacrificed on day 12 to evaluate the effect of treatment frequency (FIG. 7A, top). […] Next, the length of the colon, which is an indicator of colitis, was evaluated.
# [4] = parameters: species or system mice; conditions: mouse, in vivo, ip, 1 mg/kg
# Description: Female C57BL/6 mice with body weight of 16 to 18 g were used for PK studies. S100A8/A9 peptide or rCT-S100A8/A9 protein (1 mg/kg) was administered to the mice by intraperitoneal injection. Whole blood samples ([…]) were collected serially from the orbital vein at 0.17, 0.5, 1, 2, 4, and 6 hours after drug administration. Blood samples were centrifuged at 12,000 rpm for five minutes at 4° C., and plasma was collected. To a 10 μL plasma sample, 20 μL of 0.1% formic acid in acetonitrile was added along with amlodipine, which was an internal standard (IS), at a concentration of 500 ng/mL, and the resulting mixture was vortexed. Samples were then centrifuged at 13,200 rpm for five minutes, and 10 μL aliquots were injected for LC-MS/MS analysis.
# [5] = DSS-induced acute colitis mouse model; type: in vivo, mice; conditions: treatment for three consecutive days
# [6] = type: in vitro ADME; conditions: human, 0.5 h
# Description: Human plasma of each culture tube treated with S100A8/A9 peptide (10 μM) or rCT-S100A8/A9 protein (10 μg/mL) was incubated at 37° C. for 0, 30, and 120 minutes, respectively. At the designated time, an acetonitrile internal standard solution of chlorpropamide was added to each culture tube, and the resulting mixture was shaken with a vortex mixer for five minutes and centrifuged for additional five minutes (14,000 rpm, 4° C.). The supernatant was then injected into an LC-MS/MS system to analyze the plasma stability of the tested substances.
# [7] = immunostaining, vs control group
# [8] = vs rVehicle or rCT-treated group
molecule,measurement,setting,value
B1,colonic length,[1]; AOM/DSS,restored
same,histological colonic damage (H&E),[1]; AOM/DSS,significant alleviation; also recorded: significantly alleviated
same,tumor burden in the distal colon,[1]; AOM/DSS,decreased
same,β-catenin protein levels in colon (immunohistochemistry),[1]; AOM/DSS,effectively suppressed
same,body weight gain,"[1]; AOM/DSS, three DSS cycles until week 10",higher weight gain rate according to the treatment frequency; also recorded: increased
same,epithelial-to-mesenchymal transition (profiler PCR array),[1]; CRC colon tissues,regulated
same,number of tumors less than 2 mm,[1]; treatment for three consecutive days,significantly reduced
same,epithelial-to-mesenchymal transition in tumors (profiler PCR array),[2]; HCT116 xenografts,regulates the involvement of epithelial-to-mesenchymal transition
same,interaction of S100 and PRRs in xenograft tumors,[2]; Western blot,significantly reduced
same,expression of E-cadherin in tumor sections,[2]; [7],increased
same,expression of N-cadherin and β-catenin in tumor sections,[2]; [7],decreased
same,tumor growth,[2]; initially growing and actively growing tumors,significantly inhibited tumor growth
same,survival rate,"[3]; 50 μg/kg i.p. once daily, 3% DSS",significantly increased
same,colon damage (H&E staining),[3]; 3% DSS acute colitis,reduced according to the frequency of rCT-S100A8/A9 treatment; also recorded: alleviated
same,colon length,[3]; 3% DSS acute colitis,recovered in proportion to the number of rCT-S100A8/A9 treatments
same,"levels of pro-inflammatory cytokines (TNF-α, IL-1β, IL-6, IL-18) and MPO activity in colonic homogenates",[3]; DSS colitis,significantly reduced; also recorded: successfully reduced the secretion of IL-1β and IL-18
same,TLR4 (or RAGE)-S100A8 (or S100A9) and NLRP3-ASC interactions in colon,"[3]; colon co-IP, DSS treatment",decreased
same,body weight loss,[3]; [8],less body weight loss
same,colitis scores,[3]; [8],lower colitis scores
same,AUC values and half-life,[4],well maintained in the blood at effective drug concentrations
same,survival rate by treatment frequency,[5],highest survival rate
same,"plasma stability, remaining",[6],100%
